Reference: article doi:10.1101/2021.02.18.431627 (bioRxiv, 2021)

Columns and labels:
[1] = molecular target: GlyR-α3L-eGFP (glycine receptor α3, long splice variant L, N-terminally tagged with eGFP) (mouse) (UniProt Q91XP5); assay: subunit counting by stepwise photobleaching
[2] = molecular target: GlyR-α3L-eGFP (glycine receptor α3, long splice variant L, N-terminally tagged with eGFP) (mouse) (UniProt Q91XP5); assay: molecular brightness by raster image correlation spectroscopy
[3] = molecular target: the molecule itself; assay: subunit counting by stepwise photobleaching
[4] = molecular target: the molecule itself; assay: molecular brightness by raster image correlation spectroscopy

N (α3L-eGFP subunits per heteropentamer) [1]	heteropentameric fraction (fit with a 2nd order binomial) [1]	heteropentameric fraction (fit with a 3rd order binomial) [1]	heteropentameric fraction (fit with a 4th order binomial) [1]	N (α3L-eGFP subunits per heteropentamer, in a few cells) [2]	Molecule	stoichiometry N [3]	stoichiometry N [4]
2 to 4	23%	36%	67%	1	GlyR-α3K-mCherry (glycine receptor α3, short splice variant K, N-terminally tagged with mCherry)		
					GlyR-α3L-eGFP (glycine receptor α3, long splice variant L, N-terminally tagged with eGFP) (receptor, mouse, UniProt Q91XP5 34-464, looked up) ARSRSAPMSPSDFLDKLMGRTSGYDARIRPNFKGPPVNVTCNIFINSFGSIAETTMDYRVNIFLRQKWNDPRLAYSEYPDDSLDLDPSMLDSIWKPDLFFANEKGANFHEVTTDNKLLRIFKNGNVLYSIRLTLTLSCPMDLKNFPMDVQTCIMQLESFGYTMNDLIFEWQDEAPVQVAEGLTLPQFLLKEEKDLRYCTKHYNTGKFTCIEVRFHLERQMGYYLIQMYIPSLLIVILSWVSFWINMDAAPARVALGITTVLTMTTQSSGSRASLPKVSYVKAIDIWMAVCLLFVFSALLEYAAVNFVSRQHKELLRFRRKRKNKTEAFALEKFYRFSDTDDEVRESRFSFTAYGMGPCLQAKDGVVPKGPNHAVQVMPKSPDEMRKVFIDRAKKIDTISRACFPLAFLIFNIFYWVIYKILRHEDIHQQQD	5	~5
